Data taken from patent publication US7704703B2, “Arf and Hdm2 interaction domains and the methods of use thereof” (St. Jude Children's Research Hospital, Inc., priority 2002, dated 2010).
Where no end group is shown, it is not given here.

How the values were obtained:
[1] = target: T1, Hdm2 210-304 (Homo sapiens, UniProt Q00987); assay: Surface plasmon resonance: Arf library peptides binding to immobilized His-tagged Hdm2 210-304; conditions: 15 amino acid peptides; maximal SPR signal after binding for 10 minutes
T1 construct: poly-His (thrombin cleavable, pET28a) (cleaved yes); made in house; host or cells: E. coli BL21(DE3)
T1 sequence (Q00987 210-304): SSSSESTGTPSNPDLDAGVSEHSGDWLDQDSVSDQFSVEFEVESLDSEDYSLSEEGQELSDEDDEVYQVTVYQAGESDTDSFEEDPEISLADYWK
Description: Surface Plasmon Resonance. Binding studies were performed using a Biacore 3000 surface plasmon resonance (SPR) instrument (Biacore, Inc.). A Tetra-His™ Antibody (Qiagen, Inc.; Cat. #34670) was covalently attached to a carboxymethylated gold surface (C-1 chip; Biacore, Inc.). The carboxymethyl groups on the surface were activated with N-ethyl-N′-(3-dimethylaminopropyl) carbodiimide (EDC) and N-hydroxysuccinimide (NHS) and the antibody was attached at pH 7.4 in 20 mM sodium phosphate buffer, 150 mM NaCl (PBS). Reactive sites remaining on the surface were blocked by reaction with ethanolamine. […] Binding was measured by flowing the non-His-tagged analyte through the reference and ligand-containing flow cells in sequence. […] Changes in the SPR response due to solvent differences and the injection process were monitored by injection of HBS-N buffer alone. […]
Two libraries of peptides 15 amino acids in length were synthesized based on the sequence of exon 1β of mouse p19^Arf and the entire sequence of human p14^Arf. […] The ability of these peptides to bind Hdm2 fragments was determined using the surface plasmon resonance (SPR) technique with a Biacore 3000 instrument. […] Relative binding affinity was judged on the basis of the maximal SPR signal detected after binding for 10 minutes.

[2] = target: T2, Hdm2 210-275 (Homo sapiens, UniProt Q00987); assay: CD-based binding assay, induction of β-strand secondary structure with Hdm2 210-275
T2 construct: poly-His (thrombin cleavable, pET28a) (cleaved yes); made in house; host or cells: E. coli BL21(DE3)
T2 sequence (Q00987 210-275): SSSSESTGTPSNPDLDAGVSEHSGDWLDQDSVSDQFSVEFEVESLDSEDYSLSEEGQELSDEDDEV
Description: (§1) Circular Dichroism. Spectra were recorded at 25° C. using an Aviv Model 62A DS circular dichroism spectropolarimeter (Aviv Instruments, Inc.) equipped with a thermoelectric temperature control unit. All samples were prepared in 10 mM Tris-HCl, pH 7.0 at 0.02-0.2 mM as determined by amino acid analysis. Spectra were recorded using 1 mm quartz cuvettes and reported spectra are the average of 10 scans over the range […]. Melting experiments were recorded in 10 mm quartz cuvettes with active stirring. The signal at 216 nm (β strand minimum) was used to monitor structural changes and the signal was averaged over 15 sec. The sample temperature was increased in 1° C. steps.
β-strand secondary structure forms when Arf and Hdm2 interact. […] This structural transition is induced when mArfN37 is added to an Hdm2 fragment and when an Hdm2 fragment is added to mArfN37. […] In contrast, the uncomplexed species elute at times consistent with monodisperse, conformationally extended polypeptides. Second, NMR resonances for ^15N-mArfN37 or ^15N-Hdm2 210-304 (and ^15N-Hdm2 210-275) are broadened beyond detection when an unlabeled form of the appropriate binding partner is added to the solution. At mArfN37:Hdm2 210-304 (or mArfN37:Hdm2 210-275) molar ratios that produce maximal β-strand secondary structure based on ellipticity at 200 nm using CD, resonances cannot be observed for the isotope-labeled component of Arf/Hdm2 mixtures. Further, the NMR spectra are consistent with slow exchange between the free and bound states.
Characterization of Arf Hdm2 assemblies. As discussed above, the addition of mArfN37 to Hdm2 210-304 results in the formation of supramolecular assemblies comprised of β-strands. Stepwise addition of sub-stoichiometric amounts of mArfN37 to Hdm2 210-304 increased β-strand secondary structure content as judged by the change in ellipticity at 200 nm using CD. […] The binding of mArfN37 to Hdm2 210-304, as monitored in this way, is saturable. Similar results were obtained when mArfN37 was mixed with the shorter fragment of Hdm2, Hdm2 210-275. Further, saturable binding is also observed when the Hdm2 fragments were added to an excess of mArfN37. These findings indicate that there are a limited number of binding sites for mArfN37 within Hdm2 210-304 and that discreet structures (containing β-strands) form when mArfN37 and Hdm2 210-304 (or 210-275) are mixed. […] Similar behavior is observed when mArfN37 binds Hdm2 210-275.

[3] = target: T1, Hdm2 210-304; assay: CD-based binding assay, induction of β-strand secondary structure with Hdm2 210-304
Description: as §1, with “C. steps. […]” for “C. steps.”
Characterization of Arf Hdm2 assemblies. […] The binding of mArfN37 to Hdm2 210-304, as monitored in this way, is saturable. […]
To investigate the roles of individual Arf motifs (A1 and A2) and Arf-binding segments of Hdm2 (H1 and H2) in the interactions between Arf and Hdm2 the binding of peptides containing these small segments (A1, A2, H1, or H2) to larger protein fragments of the corresponding binding partner (mArfN37 or Hdm2 210-304) were monitored using the CD-based binding assay. […] Peptides from the Hdm2 library that were positive for mArfN37 binding on the basis of SPR (i.e. those within H1 and H2) were mixed with mArfN37 and binding was monitored in the same manner. […]

binding of Arf library peptides to Hdm2 210-304 (SPR) [1] | Substance | induction of β-strand secondary structure/assembly when mixed with Hdm2 210-275 (CD) [2] | induction of β-strand secondary structure when mixed with Hdm2 210-304 (CD) [3]
bind Hdm2 210-304 | mouse Arf peptide residues 31-45: mouse p19^Arf library 15-mer spanning residues 31-45, contains the RRPR nucleolar localization signal (RRPRTASCALAFVNM; UniProt Q64364 31-45, looked up, fragment) | – | –
– | mArfN37: peptide containing the N-terminal 37 amino acids of mouse Arf (p19^Arf residues 1-37, SEQ ID NO:16) (MGRRFLVTVRIQRAGRPLQERVFLVKFVRSRRPRTAS; also: His tag; listed as Mus musculus) | transition from random conformations to β-strand secondary structure | transition from random conformations to β-strand secondary structure
binds Hdm2 210-304 | human Arf peptide residues 86-100: human p14^Arf library 15-mer spanning residues 86-100, contains the NoLS RRPR (LRRPRHSHPTRARRC; UniProt Q8N726 86-100, looked up, fragment) | – | –
